From EP4772193A1 (Teijin Pharma Limited, dated 2026)

T1: recombinant human soluble gpNMB (recombinant human gpNMB-FLAG-His) (human, UniProt Q14956 23-498)
T1 sequence: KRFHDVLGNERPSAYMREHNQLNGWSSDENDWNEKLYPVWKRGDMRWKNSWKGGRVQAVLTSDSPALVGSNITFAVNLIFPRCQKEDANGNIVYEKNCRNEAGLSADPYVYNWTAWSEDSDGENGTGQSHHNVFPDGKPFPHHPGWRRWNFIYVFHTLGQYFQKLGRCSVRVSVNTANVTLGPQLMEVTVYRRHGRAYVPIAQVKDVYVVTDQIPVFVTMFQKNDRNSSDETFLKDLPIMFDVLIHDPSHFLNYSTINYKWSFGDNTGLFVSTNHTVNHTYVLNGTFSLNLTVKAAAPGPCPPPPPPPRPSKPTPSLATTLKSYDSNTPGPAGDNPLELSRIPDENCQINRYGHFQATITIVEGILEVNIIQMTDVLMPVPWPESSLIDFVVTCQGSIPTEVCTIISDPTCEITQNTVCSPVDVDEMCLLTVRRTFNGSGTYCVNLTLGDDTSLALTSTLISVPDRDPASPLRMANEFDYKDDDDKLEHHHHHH


Experiments:
[1] = molecular target: T1, recombinant human soluble gpNMB …; test: antigen ELISA, vs hGPN06-1_H1L1
[2] = molecular target: T1, recombinant human soluble gpNMB …; test: antigen ELISA

Row | Binder | Relative binding activity [1] | EC50 [2] [nM]
1 | hGPN06-1_H1L1 VH D110A (antibody, V domains shown) VH: QVQLVQSGAEVKKPGASVKVSCKASGYTFTDNWMGWVKQRPGQGLEWIGAIDPSDSFTNYNQNFKGRVTMTVDTSISTAYMELSRLRSDDSAVYFCTRSGYYGSPKLGGAYWGQGTLVTVSS VL: EIVLTQSPSSLSASVGDRVTITCSASSSISYMHWYQQKSGTAPKLLIYSTSNLASGVPSRFSGSGSGTDFTFTISSLQPEDAATYYCHQWNSYPCTFGGGTKLEIK | 0.79 | 0.956
2 | hGPN06-1_H1L1 VH S104A (antibody, V domains shown) VH: QVQLVQSGAEVKKPGASVKVSCKASGYTFTDNWMGWVKQRPGQGLEWIGAIDPSDSFTNYNQNFKGRVTMTVDTSISTAYMELSRLRSDDSAVYFCTRSGYYGAPKLGGDYWGQGTLVTVSS VL: EIVLTQSPSSLSASVGDRVTITCSASSSISYMHWYQQKSGTAPKLLIYSTSNLASGVPSRFSGSGSGTDFTFTISSLQPEDAATYYCHQWNSYPCTFGGGTKLEIK | 0.88 | 0.712
3 | hGPN06-1_H1L1 VH G109A (antibody, V domains shown) VH: QVQLVQSGAEVKKPGASVKVSCKASGYTFTDNWMGWVKQRPGQGLEWIGAIDPSDSFTNYNQNFKGRVTMTVDTSISTAYMELSRLRSDDSAVYFCTRSGYYGSPKLGADYWGQGTLVTVSS VL: EIVLTQSPSSLSASVGDRVTITCSASSSISYMHWYQQKSGTAPKLLIYSTSNLASGVPSRFSGSGSGTDFTFTISSLQPEDAATYYCHQWNSYPCTFGGGTKLEIK | 0.34 | 4.89
4 | hGPN06-1_H1L1 VH S99A (antibody, V domains shown) VH: QVQLVQSGAEVKKPGASVKVSCKASGYTFTDNWMGWVKQRPGQGLEWIGAIDPSDSFTNYNQNFKGRVTMTVDTSISTAYMELSRLRSDDSAVYFCTRAGYYGSPKLGGDYWGQGTLVTVSS VL: EIVLTQSPSSLSASVGDRVTITCSASSSISYMHWYQQKSGTAPKLLIYSTSNLASGVPSRFSGSGSGTDFTFTISSLQPEDAATYYCHQWNSYPCTFGGGTKLEIK | 0.92 | 0.587
5 | hGPN06-1_H1L1 VH K106A (antibody, V domains shown) VH: QVQLVQSGAEVKKPGASVKVSCKASGYTFTDNWMGWVKQRPGQGLEWIGAIDPSDSFTNYNQNFKGRVTMTVDTSISTAYMELSRLRSDDSAVYFCTRSGYYGSPALGGDYWGQGTLVTVSS VL: EIVLTQSPSSLSASVGDRVTITCSASSSISYMHWYQQKSGTAPKLLIYSTSNLASGVPSRFSGSGSGTDFTFTISSLQPEDAATYYCHQWNSYPCTFGGGTKLEIK | 1 | 0.441
6 | hGPN06-1_H1L1 VH G108A (antibody, V domains shown) VH: QVQLVQSGAEVKKPGASVKVSCKASGYTFTDNWMGWVKQRPGQGLEWIGAIDPSDSFTNYNQNFKGRVTMTVDTSISTAYMELSRLRSDDSAVYFCTRSGYYGSPKLAGDYWGQGTLVTVSS VL: EIVLTQSPSSLSASVGDRVTITCSASSSISYMHWYQQKSGTAPKLLIYSTSNLASGVPSRFSGSGSGTDFTFTISSLQPEDAATYYCHQWNSYPCTFGGGTKLEIK | 0.96 | 0.476
7 | hGPN06-1_H1L1 VH R98A (antibody, V domains shown) VH: QVQLVQSGAEVKKPGASVKVSCKASGYTFTDNWMGWVKQRPGQGLEWIGAIDPSDSFTNYNQNFKGRVTMTVDTSISTAYMELSRLRSDDSAVYFCTASGYYGSPKLGGDYWGQGTLVTVSS VL: EIVLTQSPSSLSASVGDRVTITCSASSSISYMHWYQQKSGTAPKLLIYSTSNLASGVPSRFSGSGSGTDFTFTISSLQPEDAATYYCHQWNSYPCTFGGGTKLEIK | 0.05 | 53.2
8 | hGPN06-1_H1L1 VH Y102A (antibody, V domains shown) VH: QVQLVQSGAEVKKPGASVKVSCKASGYTFTDNWMGWVKQRPGQGLEWIGAIDPSDSFTNYNQNFKGRVTMTVDTSISTAYMELSRLRSDDSAVYFCTRSGYAGSPKLGGDYWGQGTLVTVSS VL: EIVLTQSPSSLSASVGDRVTITCSASSSISYMHWYQQKSGTAPKLLIYSTSNLASGVPSRFSGSGSGTDFTFTISSLQPEDAATYYCHQWNSYPCTFGGGTKLEIK | 0.68 | 2.21
9 | hGPN06-1_H1L1 VH G103A (antibody, V domains shown) VH: QVQLVQSGAEVKKPGASVKVSCKASGYTFTDNWMGWVKQRPGQGLEWIGAIDPSDSFTNYNQNFKGRVTMTVDTSISTAYMELSRLRSDDSAVYFCTRSGYYASPKLGGDYWGQGTLVTVSS VL: EIVLTQSPSSLSASVGDRVTITCSASSSISYMHWYQQKSGTAPKLLIYSTSNLASGVPSRFSGSGSGTDFTFTISSLQPEDAATYYCHQWNSYPCTFGGGTKLEIK | 1.14 | 0.762
10 | hGPN06-1_H1L1 VH Y101A (antibody, V domains shown) VH: QVQLVQSGAEVKKPGASVKVSCKASGYTFTDNWMGWVKQRPGQGLEWIGAIDPSDSFTNYNQNFKGRVTMTVDTSISTAYMELSRLRSDDSAVYFCTRSGAYGSPKLGGDYWGQGTLVTVSS VL: EIVLTQSPSSLSASVGDRVTITCSASSSISYMHWYQQKSGTAPKLLIYSTSNLASGVPSRFSGSGSGTDFTFTISSLQPEDAATYYCHQWNSYPCTFGGGTKLEIK | 1.04 | 0.502

More lines, now with the values ahead:

Row | Relative binding activity [1] | EC50 [2] [nM] | Binder
11 | 0.98 | 0.36 | hGPN06-1_H1L1 VH T97A (antibody, V domains shown) VH: QVQLVQSGAEVKKPGASVKVSCKASGYTFTDNWMGWVKQRPGQGLEWIGAIDPSDSFTNYNQNFKGRVTMTVDTSISTAYMELSRLRSDDSAVYFCARSGYYGSPKLGGDYWGQGTLVTVSS VL: EIVLTQSPSSLSASVGDRVTITCSASSSISYMHWYQQKSGTAPKLLIYSTSNLASGVPSRFSGSGSGTDFTFTISSLQPEDAATYYCHQWNSYPCTFGGGTKLEIK
12 | 1.09 | 1.18 | hGPN06-1_H1L1 VH P105A (antibody, V domains shown) VH: QVQLVQSGAEVKKPGASVKVSCKASGYTFTDNWMGWVKQRPGQGLEWIGAIDPSDSFTNYNQNFKGRVTMTVDTSISTAYMELSRLRSDDSAVYFCTRSGYYGSAKLGGDYWGQGTLVTVSS VL: EIVLTQSPSSLSASVGDRVTITCSASSSISYMHWYQQKSGTAPKLLIYSTSNLASGVPSRFSGSGSGTDFTFTISSLQPEDAATYYCHQWNSYPCTFGGGTKLEIK
13 | 0.71 | 1.05 | hGPN06-1_H1L1 VH L107A (antibody, V domains shown) VH: QVQLVQSGAEVKKPGASVKVSCKASGYTFTDNWMGWVKQRPGQGLEWIGAIDPSDSFTNYNQNFKGRVTMTVDTSISTAYMELSRLRSDDSAVYFCTRSGYYGSPKAGGDYWGQGTLVTVSS VL: EIVLTQSPSSLSASVGDRVTITCSASSSISYMHWYQQKSGTAPKLLIYSTSNLASGVPSRFSGSGSGTDFTFTISSLQPEDAATYYCHQWNSYPCTFGGGTKLEIK
14 | 0.06 | 65.8 | hGPN06-1_H1L1 VH G100A (antibody, V domains shown) VH: QVQLVQSGAEVKKPGASVKVSCKASGYTFTDNWMGWVKQRPGQGLEWIGAIDPSDSFTNYNQNFKGRVTMTVDTSISTAYMELSRLRSDDSAVYFCTRSAYYGSPKLGGDYWGQGTLVTVSS VL: EIVLTQSPSSLSASVGDRVTITCSASSSISYMHWYQQKSGTAPKLLIYSTSNLASGVPSRFSGSGSGTDFTFTISSLQPEDAATYYCHQWNSYPCTFGGGTKLEIK
15 | 0.99 | 0.584 | hGPN06-1_H1L1 VH Y111A (antibody, V domains shown) VH: QVQLVQSGAEVKKPGASVKVSCKASGYTFTDNWMGWVKQRPGQGLEWIGAIDPSDSFTNYNQNFKGRVTMTVDTSISTAYMELSRLRSDDSAVYFCTRSGYYGSPKLGGDAWGQGTLVTVSS VL: EIVLTQSPSSLSASVGDRVTITCSASSSISYMHWYQQKSGTAPKLLIYSTSNLASGVPSRFSGSGSGTDFTFTISSLQPEDAATYYCHQWNSYPCTFGGGTKLEIK
